Measured values as given in patent publication US20260209362A1 (VIB VZW, published 2026).

T1: human IL-12Rβ2 expressed on cells (human, UniProt Q99665 24-862)
T1 sequence: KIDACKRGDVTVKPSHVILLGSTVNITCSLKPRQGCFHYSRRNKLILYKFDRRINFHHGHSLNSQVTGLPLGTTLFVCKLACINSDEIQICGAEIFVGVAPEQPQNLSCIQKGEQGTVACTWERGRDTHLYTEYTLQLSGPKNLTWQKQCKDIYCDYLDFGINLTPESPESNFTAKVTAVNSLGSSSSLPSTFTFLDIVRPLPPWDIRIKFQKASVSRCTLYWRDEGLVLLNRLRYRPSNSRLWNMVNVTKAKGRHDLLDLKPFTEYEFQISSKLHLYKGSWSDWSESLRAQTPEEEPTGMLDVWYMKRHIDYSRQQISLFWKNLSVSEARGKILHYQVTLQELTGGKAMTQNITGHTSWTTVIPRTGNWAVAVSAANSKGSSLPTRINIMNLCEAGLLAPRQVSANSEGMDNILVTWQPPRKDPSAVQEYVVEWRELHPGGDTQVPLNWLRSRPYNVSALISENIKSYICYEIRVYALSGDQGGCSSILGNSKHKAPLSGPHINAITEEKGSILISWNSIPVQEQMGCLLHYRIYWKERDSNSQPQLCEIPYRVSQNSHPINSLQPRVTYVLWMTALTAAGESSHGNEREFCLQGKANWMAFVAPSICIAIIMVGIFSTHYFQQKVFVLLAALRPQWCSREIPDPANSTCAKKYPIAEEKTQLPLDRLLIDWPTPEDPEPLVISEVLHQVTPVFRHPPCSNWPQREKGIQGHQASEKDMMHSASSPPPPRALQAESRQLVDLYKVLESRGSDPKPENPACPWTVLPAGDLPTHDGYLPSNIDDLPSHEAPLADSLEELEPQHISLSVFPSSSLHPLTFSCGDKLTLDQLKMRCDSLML

T2: human IL-12Rβ2 (human, UniProt Q99665 24-862)
T2 construct: Expressed on HEK293T cells transiently transfected with a pcDNA3 plasmid (Genscript clone OHu21785); also called hIL-12RB2; IL-12 receptor β2 subunit
T2 sequence: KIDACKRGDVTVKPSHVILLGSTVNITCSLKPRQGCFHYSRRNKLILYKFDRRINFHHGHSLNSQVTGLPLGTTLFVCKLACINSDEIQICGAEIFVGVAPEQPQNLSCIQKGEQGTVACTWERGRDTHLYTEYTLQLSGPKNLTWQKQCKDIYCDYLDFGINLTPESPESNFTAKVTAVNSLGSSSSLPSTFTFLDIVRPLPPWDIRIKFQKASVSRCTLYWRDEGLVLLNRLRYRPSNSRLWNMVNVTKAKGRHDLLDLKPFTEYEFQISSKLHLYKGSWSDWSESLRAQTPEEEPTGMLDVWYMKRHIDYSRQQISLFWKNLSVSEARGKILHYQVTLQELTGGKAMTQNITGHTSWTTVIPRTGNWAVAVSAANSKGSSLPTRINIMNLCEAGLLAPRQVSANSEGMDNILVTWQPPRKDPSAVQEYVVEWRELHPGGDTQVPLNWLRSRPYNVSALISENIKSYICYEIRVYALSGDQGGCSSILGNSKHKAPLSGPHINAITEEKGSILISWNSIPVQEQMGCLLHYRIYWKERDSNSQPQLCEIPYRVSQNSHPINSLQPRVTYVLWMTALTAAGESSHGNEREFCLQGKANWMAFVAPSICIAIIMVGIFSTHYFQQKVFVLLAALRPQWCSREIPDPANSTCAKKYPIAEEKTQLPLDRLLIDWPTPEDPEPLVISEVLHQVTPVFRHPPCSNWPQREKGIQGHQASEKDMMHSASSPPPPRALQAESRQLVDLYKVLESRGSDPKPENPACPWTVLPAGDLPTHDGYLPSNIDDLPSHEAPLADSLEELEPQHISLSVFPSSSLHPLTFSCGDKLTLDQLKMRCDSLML

T3: mouse IL-12Rβ2 (mouse, UniProt P97378 24-874)
T3 construct: Expressed on HEK293T cells transiently transfected with a pcDNA3 plasmid (Genscript clone OMu01776); also called mIL-12RB2; NP_032380.1
T3 sequence: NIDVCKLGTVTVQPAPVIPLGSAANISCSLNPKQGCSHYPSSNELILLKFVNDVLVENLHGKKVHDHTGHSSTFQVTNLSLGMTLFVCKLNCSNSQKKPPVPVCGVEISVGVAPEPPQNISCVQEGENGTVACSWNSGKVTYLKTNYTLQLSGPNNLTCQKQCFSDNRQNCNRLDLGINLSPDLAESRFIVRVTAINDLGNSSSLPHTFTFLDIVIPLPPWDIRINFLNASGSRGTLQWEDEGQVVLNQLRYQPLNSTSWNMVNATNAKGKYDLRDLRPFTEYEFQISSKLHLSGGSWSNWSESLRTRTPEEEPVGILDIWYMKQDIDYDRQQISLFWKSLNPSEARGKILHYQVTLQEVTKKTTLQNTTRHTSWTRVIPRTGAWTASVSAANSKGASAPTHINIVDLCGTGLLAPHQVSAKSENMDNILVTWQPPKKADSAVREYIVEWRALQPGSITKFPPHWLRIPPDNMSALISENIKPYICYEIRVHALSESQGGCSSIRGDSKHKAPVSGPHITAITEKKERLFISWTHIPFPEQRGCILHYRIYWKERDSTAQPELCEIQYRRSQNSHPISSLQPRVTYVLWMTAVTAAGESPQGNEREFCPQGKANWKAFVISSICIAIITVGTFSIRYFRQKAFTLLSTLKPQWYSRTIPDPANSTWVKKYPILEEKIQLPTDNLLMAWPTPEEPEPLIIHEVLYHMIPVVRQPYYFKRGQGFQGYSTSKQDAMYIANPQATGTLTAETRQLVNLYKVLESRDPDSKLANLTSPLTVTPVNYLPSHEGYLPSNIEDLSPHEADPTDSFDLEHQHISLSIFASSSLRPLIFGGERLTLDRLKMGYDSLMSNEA


What was measured:
[1] = target: T1, human IL-12Rβ2 expressed on cells; experiment: cell-based or functional assay
human IL-12Rβ2 = target: T2, human IL-12Rβ2; experiment: flow cytometry, P.E. on transfected HEK293T cells
mouse IL-12Rβ2 = target: T3, mouse IL-12Rβ2; experiment: flow cytometry, P.E. on transfected HEK293T cells

Row | % Specific Cell Lysis at 0.025 ug/mL [1] [%] | % Specific Cell Lysis at 0.5 ug/mL [1] [%] | % Specific Cell Lysis at 10 ug/mL [1] [%] | % Specific Cell Lysis at 0.00125 ug/mL [1] [%] | % cells bound (human IL-12Rβ2) [%] | dMFI (human IL-12Rβ2) | % cells bound (mouse IL-12Rβ2) [%] | dMFI (mouse IL-12Rβ2) | Binder
1 | 63.9 | 73.5 | 75.5 |  |  |  |  |  | anti-IL-12Rβ2-VHH-FcDE clone 21060 (Fc fusion) QVQLQESGGGLVQAGGSLSLSCAASGSAFRLNFMGWYRQAPGKQRELVAAINSGGTEIYHDSVKGRFTISRDNADSTVWLQMNSLKPDDTAVYYCAADRGISWSKLAGGMDYWGKGTQVTVSSAPELLGGPDVFLFPPKPKDTLMISRTPEVTCVVVDVSHEDPEVKFNWYVDGVEVHNAKTKPREEQYNSTYRVVSVLTVLHQDWLNGKEYKCKVSNKALPAPEEKTISKAKGQPREPQVYTLPPSRDELTKNQVSLTCLVKGFYPSDIAVEWESNGQPENNYKTTPPVLDSDGSFFLYSKLTVDKSRWQQGNVFSCSVMHEALHNHYTQKSLSLSPGK
2 | 51.6 | 64.7 | 73.3 | 46.5 |  |  |  |  | anti-IL-12Rβ2-VHH-FcDE clone 21053 (Fc fusion) QVQLQESGGGLVQAGGSLRLSCAASGRTFSNYAMAWFRQAPGTEREFVAGLSGSGGDTEFYDDSVKGRFAISRDSAKNTVWLQMNSLKPEDTAVYYCAAATHVVVHYGLVRRRGTYDYWGQGTQVTVSSAPELLGGPDVFLFPPKPKDTLMISRTPEVTCVVVDVSHEDPEVKFNWYVDGVEVHNAKTKPREEQYNSTYRVVSVLTVLHQDWLNGKEYKCKVSNKALPAPEEKTISKAKGQPREPQVYTLPPSRDELTKNQVSLTCLVKGFYPSDIAVEWESNGQPENNYKTTPPVLDSDGSFFLYSKLTVDKSRWQQGNVFSCSVMHEALHNHYTQKSLSLSPGK
3 | 50.1 | 61.3 | 63.7 | 42.4 |  |  |  |  | anti-IL-12Rβ2-VHH-FcDE clone 21050 (Fc fusion) QVQLQESGGGLVQAGGSLRLSCAASGRTFNNYAMAWFRQAPGKEREFIAAITRSDTTLYIDSVKGRFTISRDNAKNTVALQMNSLKPEDTAVYYCAAGMPYSYSDYPRDSKYDYWGRGTQVTVSSAPELLGGPDVFLFPPKPKDTLMISRTPEVTCVVVDVSHEDPEVKFNWYVDGVEVHNAKTKPREEQYNSTYRVVSVLTVLHQDWLNGKEYKCKVSNKALPAPEEKTISKAKGQPREPQVYTLPPSRDELTKNQVSLTCLVKGFYPSDIAVEWESNGQPENNYKTTPPVLDSDGSFFLYSKLTVDKSRWQQGNVFSCSVMHEALHNHYTQKSLSLSPGK
4 |  | 60.9 | 69.5 | 52.7 |  |  |  |  | anti-IL-12Rβ2-VHH-FcDE clone 21062 (Fc fusion) QVQLQESGGGLVQPGGSLRLSCAASGISSSRLHVGWFRQSPGKEREFVAAISLSGGTQAYTDSVKGRFTISGDNVKNTAYLQMNSLRPEDTAVYYCAARERFIWTWSDLTYDYWGQGTQVTVSSAPELLGGPDVFLFPPKPKDTLMISRTPEVTCVVVDVSHEDPEVKFNWYVDGVEVHNAKTKPREEQYNSTYRVVSVLTVLHQDWLNGKEYKCKVSNKALPAPEEKTISKAKGQPREPQVYTLPPSRDELTKNQVSLTCLVKGFYPSDIAVEWESNGQPENNYKTTPPVLDSDGSFFLYSKLTVDKSRWQQGNVFSCSVMHEALHNHYTQKSLSLSPGK
5 | 54.3 |  |  |  |  |  |  |  | anti-IL-12Rβ2-VHH-Fc clone 20432 with a wildtype IgG1 Fc sequence (Fc fusion) QVQLQESGGGLVQPGGSLRLSCAASGFTFSTSGMHWFRQAPGKGLEWVSSIGATVDNSYYASSVKGRFTISRDNAKNTLYLLMNSLKSEDTAVYYCSKDPTGSSRGQGTQVTVSSAPELLGGPSVFLFPPKPKDTLMISRTPEVTCVVVDVSHEDPEVKFNWYVDGVEVHNAKTKPREEQYNSTYRVVSVLTVLHQDWLNGKEYKCKVSNKALPAPIEKTISKAKGQPREPQVYTLPPSRDELTKNQVSLTCLVKGFYPSDIAVEWESNGQPENNYKTTPPVLDSDGSFFLYSKLTVDKSRWQQGNVFSCSVMHEALHNHYTQKSLSLSPGK
6 |  | 67.7 | 67.3 | 59 |  |  |  |  | 20429-FcDE (Fc fusion) VHH-Fc chain: QVQLQESGGGLVQPGGSLRLSCKASGFTFSTYAMSWVRQAPGKGLEWVSAVNSGGLSTDYADSVEGRFTISRDDAKNMLFLQMNSLKPEDTARYYCAKYEDCSDYMCHRDRAGYWGQGTQVTVSSAPELLGGPDVFLFPPKPKDTLMISRTPEVTCVVVDVSHEDPEVKFNWYVDGVEVHNAKTKPREEQYNSTYRVVSVLTVLHQDWLNGKEYKCKVSNKALPAPEEKTISKAKGQPREPQVYTLPPSRDELTKNQVSLTCLVKGFYPSDIAVEWESNGQPENNYKTTPPVLDSDGSFFLYSKLTVDKSRWQQGNVFSCSVMHEALHNHYTQKSLSLSPGK
7 |  | 63.4 | 66.9 | 49.5 |  |  |  |  | anti-IL-12Rβ2-VHH-FcDE clone 20438 (Fc fusion) QVQLQESGGGLVQPGGSLRLSCTASGFAFSTYWMYWIRQSPEKGFEWVSVVNTGGDITYYADSVKGRFTISRDNAKNTLYLQMNSLKPEDTALYYCARDRTTMSYTRTYYRGGQGTQVTVSSAPELLGGPDVFLFPPKPKDTLMISRTPEVTCVVVDVSHEDPEVKFNWYVDGVEVHNAKTKPREEQYNSTYRVVSVLTVLHQDWLNGKEYKCKVSNKALPAPEEKTISKAKGQPREPQVYTLPPSRDELTKNQVSLTCLVKGFYPSDIAVEWESNGQPENNYKTTPPVLDSDGSFFLYSKLTVDKSRWQQGNVFSCSVMHEALHNHYTQKSLSLSPGK
8 |  |  |  |  | 36 | 759 | 17.1 | 421 | anti-IL-12Rβ2 VHH clone 3CRHM49 (VHH, not shown: small tags and cut ends, periplasmic extract; also called 21058) VHH: QVQLQESGGGLVQAGGSLRLSCAASGRTFSNYAMAWFRQAPGTEREFVAGLSGSGGDTAFYDNSVMGRFTISRDSAKNTMWLQINNLKPEDTAVYYCAAATHVVVSYGLVRRRGTYDYWGQGTQVTVSS
9 |  |  |  |  | 36.7 | 767 | 15.3 | 369 | anti-IL-12Rβ2 VHH clone 3CRHM18 (VHH, not shown: small tags and cut ends, periplasmic extract) VHH: QVQLQESGGGLVQDGGSLRLSCAASGRTFSNYAMAWFRQAPGTEREFVAGLSGSGGDTAFYDNSVMGRFTISRDSAKNTMWLQINNLKPEDTAVYYCAAATHVVVSYGLVRKRGTYDYWGQGTQVTVSS
10 |  |  |  |  | 35.8 | 689 | 18.6 | 412 | anti-IL-12Rβ2 VHH clone 3CRHM14 (VHH, not shown: small tags and cut ends, periplasmic extract) VHH: QVQLQESGGGLVQAGGSLRLSCAASGRTFSNYAMAWFRQAPGTEREFVAGLSGSGGDTEFYDDSVKGRFAISRDSAKNTVWLQMNSLKPEDTAVYYCAAATHVVVHYGLVRRRGTYDYWGQGTQVTVSS
11 |  |  |  |  | 37.6 | 784 | 7.51 | 294 | anti-IL-12Rβ2 VHH clone 3CAHM11 (VHH, not shown: small tags and cut ends, periplasmic extract) VHH: QVQLQESGGGLVQAGGSLRLSCAASGRTFNNYAMAWFRQAPGKEREFIAAITRSDTTLYIDSVKGRFTISRDNAKNTVALQMNSLKPEDTAVYYCAAGMPYSYSDYPRDSKYDYWGRGTQVTVSS
